From the DeepSol protein solubility set

assay: soluble on expression in E. coli; label from the status in PepcDB or PDB records

| Sequence | soluble on expression in E. coli |
| --- | --- |
| MSSVAVLTQESFAEHRSGLVPQQIKVATLNSEEESDPPTYKDAFPPLPEKAACLESAQEPAGAWGNKIRPIKASVITQVFHVPLEERKYKDMNQFGEGEQAKICLEIMQRTGAHLELSLAKDQGLSIMVSGKLDAVMKARKDIVARLQTQASATVAIPKEHHRFVIGKNGEKLQDLELKTATKIQIPRPDDPSNQIKITGTKEGIEKARHEVLLISAEQDKRAVERLEVEKAFHPFIAGPYNRLVGEIMQETGTRINIPPPSVNRTEIVFTGEKEQLAQAVARIKKIYEEKKKKTTTIAVEVKKSQHKYVIGPKGNSLQEILERTGVSVEIPPSDSISETVILRGEPEKLGQALTEVYAKANSFTVSSVAAPSWLHRFIIGKKGQNLAKITQQMPKVHIEFTEGEDKITLEGPTEDVSVAQEQIEGMVKDLINRMDYVEINIDHKFHRHLIGKSGANINRIKDQYKVSVRIPPDSEKSNLIRIEGDPQGVQQAKRELLELASRMENERTKDLIIEQRFHRTIIGQKGERIREIRDKFPEVIINFPDPAQKSDIVQLRGPKNEVEKCTKYMQKMVADLVENSYSISVPIFKQFHKNIIGKGGANIKKIREESNTKIDLPAENSNSETIIITGKRANCEAARSRILSIQKDLANIAEVEVSIPAKLHNSLIGTKGRLIRSIMEECGGVHIHFPVEGSGSDTVVIRGPSSDVEKAKKQLLHLAEEKQTKSFTVDIRAKPEYHKFLIGKGGGKIRKVRDSTGARVIFPAAEDKDQDLITIIGKEDAVREAQKELEALIQNLDNVVEDSMLVDPKHHRHFVIRRGQVLREIAEEYGGVMVSFPRSGTQSDKVTLKGAKDCVEAAKKRIQEIIEDLEAQVTLECAIPQKFHRSVMGPKGSRIQQITRDFSVQIKFPDREENAVHSTEPVVQENGDEAGEGREAKDCDPGSPRRCDIIIISGRKEKCEAAKEALEALVPVTIEVEVPFDLHRYVIGQKGSGIRKMMDEFEVNIHVPAPELQSDIIAITGLAANLDRAKAGLLERVKELQAEQEDRALRSFKLSVTVDPKYHPKIIGRKGAVITQIRLEHDVNIQFPDKDDGNQPQDQITITGYEKNTEAARDAILRIVGELEQMVSEDVPLDHRVHARIIGARGKAIRKIMDEFKVDIRFPQSGAPDPNCVTVTGLPENVEEAIDHILNLEEEYLADVVDSEALQVYMKPPAHEEAKAPSRGFVVRDAPWTASSSEKAPDMSSSEEFPSFGAQVAPKTLPWGPKR | soluble |
| MKVLGLIVEYNPFHNGHLYHLEESKKISGADFVVCVMSGNFIQRGEPAIVNKWARTKMALSAGADLVIELPLSCAMASAEYFASGAVRILNDIGIVDYICFGSEHGDVKTLDYIAQILVEEPESYKSFLKEELDNGLSYPAARESALKKYTAHSINIPQIISSSNNILGIEYLKALRRIKSSIIPLTIKRINNDYNTENITGSISSASSIRKYISTSNSTSFDDVLAMTMPKTSVDILFEEFSAGRGPVFKEDFYPVVTSLIRKMTPEQIRNFAYVSEGLENRIKSAADTAGTYEELVESICTRRYTKTRVQRILMGILMGVTSKDLDMLSRFDSPQYARILGFNSKGKQLLSQIKKKSSIPLVLKLSDFIKSCDPVLKRKLELEILATDLYVMCYKNPAFRKAGQEFTQNIIIM | soluble |
| RSPICHLFSAINSSPFKIAPEKEQDLKTIVDDKKIIISVVSEPGFNIRVRKNESNNSHEIVLTVASLEYIWAFSNFFWVFTQEYSKSQKNNDEHFDLTGKNRLKKSDELLKWARKNLQTTGCESWPKKCPKPEAYLQGSEDSQVASEIFLCAIAWILHHEISHVVLQHPLVTTAFSTQEEREADSHATKWILGNLYESAPELKKRALGIATAVLCIQSLEVENYFCLQNTHPAAYERIYSNISCYPVGNEELIEALCTVMLQYLFHGKNINVNLDGESFSSILGDLLCDISRLTSN | not soluble |
| MVESKATLEEYVQTQLLQNWIYNDGAYLSLAFDAMCEGNFDRLCELDWQLSATKVARESREGSFKLGVRLLKIFIRYETHTLLTAYQQAIAEKRVQGYFPIVFAMVAQAMGLSKADTLYAFYYNAAVGVITNGVKLIPLSQMDGQDILFDLRGSLVQAVELSLDPDEEWLGAATLANDIRAMQHEVLYTRLYMSLEHHHHHH | not soluble |
| GPGSMSSLTEGARASHTSSKEAGYYRLQSPKHINIDPCVYEIRTMRGSGPGGQGTNSSSNKVELRADMELLSEFFDEELLAALRRHEAGGALTNDGTTIVVSCHEHRSALQNKEGCLRKLQTLLHKASWVPPAEAGLVERPSFIVTEQKVRRRKKSNMNRMTRSARSGSW | soluble |
| MAAVDSFQLLYREIARSCSGYVETLALVGACYMASKTVIFMRDCYSLIRLYFVPRLVRHRDLSQQYGQWAIICGASEAIAKAYAEELARHGICVILISKDLSSVSDTARLISNNYGVEAICIEADFNQGPSACKPIKDAISSKDIGFIVNSFDGTLEISQNFLELSESVLWGTIDRNIAATTLVTRLALPAMMERGRGAVVNISSGHCFHPIPRKAAFSASTAFLDNFSRSLQYEYGDQGVFVQSLLPFRVASQRPEGSAPPASWLVPSPQVYASHALSTLGISHRTTGYWPHSMQLGLVKMMPEWVWMLGSRVFTMAT | soluble |
| LQTLPPVQLAQKYFQIFSEEKDPLWQDPCEDKRHKDIWSKEKTCDRFPKLLIIGPQKTGTTALYLFLGMHPDLSSNYPSSETFEEIQFFNGHNYHKGIDWYMEFFPIPSNTTSDFYFEKSANYFDSEVAPRRAAALLPKAKVLTILINPADRAYSWYQHQRAHDDPVALKYTFHEVITAGSDASSKLRALQNRCLVPGWYATHIERWLSAYHANQILVLDGKLLRTEPAKVMDMVQKFLGVTNTIDYHKTLAFDPKKGFWCQLLEGGKTKCLGKSKGRKYPEMDLDSRAFLKDYYRDHNIELSKLLYKMGQTLPTWLREDLQNTR | soluble |
| MKKRLTESQFQEAIQGLEVGQQTIEIARGVLVDGKPQATFATSLGLTRGAVSQAVHRVWAAFEDKNLPEGYARVTAVLPEHQAYIVRKWEADAKKKQETKR | soluble |
| MKKYIALAWVCLALTDVMAQKQKVVEKVVDEDYYPVEGAVVTLKRTNQNATTDKDGVFILEEVPVYFDSLQVKKGKRSGYIDLPMRIQMRTQVMQRFSWSVKAGIGAGKFMQGPESKLKDGFSIYGGVGADIRMSKHWAFQPSLLLVSRKMKGYDFYGYYAENNGDGSSSASYEQVSGTYNPFYLEIPLLFALKYRVGNDMNLVFSFGPYIDLGLSGDEKREYIKHYYDTMEGNKTESVTNSRSLFGKRFTGGFAYGIGVEYGRFLIGGTGRVGCTSWNHSEGFIDVAFEIGYRF | not soluble |
| MELTIMSQLIDRRQNAGKKSTVNRQRFLRRYKSQIKKAVSEAVGKRSITEIDQGEQITIPAKDIYEPQFHRGHGGHIERVLPGNDNFIAGDRIKRPGGGGAGGAGGNASDSGEGEDNFVFELSREEFLELYFEDLELPDLVKKELARISTYKTVRAGVTTSGIPNNINVLRSMKQATGRRVALASPYKKRLKEAEEELERLKQLANPDKIDLLKLERDIEFFKKKIQTVPFIDTIDLRYNHRVRVPSPSTQAVMFCVMDVSGSMDEAKKDIAKRFFILLYMFLTKNYEKIELVFIRHHTSAKEVNEEEFFYSRETGGTVVSSALELLNTIIEARYPPQAWNIYVAQASDGDNWNADSPYCQELLQEKIMPLLQYFAYIEIMPRHHQSLWEVYQQVKERYPNFAMENIDNVADIYPVFRELFKRKTVAAALEHHHHHH | not soluble |
| GPGSMQAARLPTRIATGDGEDAPQTPPVHAPATPAATDEQETDQPQQAVGEATTPADRAGFQPPSAEALATRQSRNSAGAEKMGGGQRLRDHTTAQRRLMQDYRTFQKNMAEGTSSNITALPVDGDFFHWHAVISGPCDTPWEGGLFKLDLIFGDDYPFSPPKVRFRTKDVFHPNVYVDGNICMDTLKSSWQSSLNLEALLISIQSLLSDPNPLSAANGAAARLLTENRSAYDEKIRALVEESLEQSFSMDDDSDDAEVDEEAV | soluble |
| LPSSPPAEEAIIDWPVALRQSANKEDLAKEMLGMLVDYLREVETVVNTALEDEEYPASDLLHHIHKLHGSCSYSGVPRLRKICASLEQALRNGASIDELEPELFELQDEMAKVLEASRDYLN | not soluble |
